# Test results taken from doi:10.1101/2021.10.26.465098.
# pKd: −log10 of the molar value.
# Molecular target: HAdV-C5, -D26 and -B35
# Experiment: SPR
substance,measurement,value
human neutrophil protein 1 (HNP-1) (from UniProt P59665 65-94) (peptide),pKd,7.12 to 7.43
